Laboratory results: patent publication US20250262210A1 (TRUSTEES OF COLUMBIA UNIVERSITY IN THE CITY OF NEW YORK, published 2025)

Legend:
Test in all cases: IP/MS, LZTR1 R810W-FLAG, U87
CC2D1A = biological target: T1, CC2D1A (human, UniProt Q6P1N0 1-951, limits assumed)
T1 sequence (looked up): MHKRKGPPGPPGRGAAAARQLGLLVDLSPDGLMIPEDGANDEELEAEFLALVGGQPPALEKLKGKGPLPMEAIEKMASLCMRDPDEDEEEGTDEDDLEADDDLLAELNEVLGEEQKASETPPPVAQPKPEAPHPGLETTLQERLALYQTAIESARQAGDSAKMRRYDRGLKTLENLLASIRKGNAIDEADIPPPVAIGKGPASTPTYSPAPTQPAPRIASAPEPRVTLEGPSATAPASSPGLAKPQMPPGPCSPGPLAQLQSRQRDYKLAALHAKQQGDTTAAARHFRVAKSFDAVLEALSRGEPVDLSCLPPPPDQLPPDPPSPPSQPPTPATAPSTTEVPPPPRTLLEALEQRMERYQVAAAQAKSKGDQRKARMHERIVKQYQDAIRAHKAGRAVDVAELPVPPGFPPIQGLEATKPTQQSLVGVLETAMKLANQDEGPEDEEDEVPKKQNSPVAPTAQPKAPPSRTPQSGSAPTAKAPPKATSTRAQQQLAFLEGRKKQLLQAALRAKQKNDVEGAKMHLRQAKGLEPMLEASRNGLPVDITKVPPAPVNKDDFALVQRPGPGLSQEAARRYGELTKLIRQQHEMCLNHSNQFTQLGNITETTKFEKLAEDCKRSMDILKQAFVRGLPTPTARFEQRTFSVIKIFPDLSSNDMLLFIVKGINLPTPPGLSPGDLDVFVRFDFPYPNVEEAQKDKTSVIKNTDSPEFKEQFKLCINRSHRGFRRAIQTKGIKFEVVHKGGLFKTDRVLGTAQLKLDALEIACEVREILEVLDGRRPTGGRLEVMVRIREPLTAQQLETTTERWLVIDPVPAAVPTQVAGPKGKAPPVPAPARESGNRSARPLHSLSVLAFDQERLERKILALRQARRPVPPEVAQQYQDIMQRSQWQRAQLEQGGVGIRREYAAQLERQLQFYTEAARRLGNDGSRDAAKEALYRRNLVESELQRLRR
In short: (§1)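 Extracted peptides in 3% acetonitrile/0.1% formic acid ran on a 50 cm C18 column into an Orbitrap Fusion, with MaxQuant identification and spectral counting.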

POLR3A = biological target: T2, POLR3A (human, UniProt O14802 1-1390)
T2 sequence (looked up): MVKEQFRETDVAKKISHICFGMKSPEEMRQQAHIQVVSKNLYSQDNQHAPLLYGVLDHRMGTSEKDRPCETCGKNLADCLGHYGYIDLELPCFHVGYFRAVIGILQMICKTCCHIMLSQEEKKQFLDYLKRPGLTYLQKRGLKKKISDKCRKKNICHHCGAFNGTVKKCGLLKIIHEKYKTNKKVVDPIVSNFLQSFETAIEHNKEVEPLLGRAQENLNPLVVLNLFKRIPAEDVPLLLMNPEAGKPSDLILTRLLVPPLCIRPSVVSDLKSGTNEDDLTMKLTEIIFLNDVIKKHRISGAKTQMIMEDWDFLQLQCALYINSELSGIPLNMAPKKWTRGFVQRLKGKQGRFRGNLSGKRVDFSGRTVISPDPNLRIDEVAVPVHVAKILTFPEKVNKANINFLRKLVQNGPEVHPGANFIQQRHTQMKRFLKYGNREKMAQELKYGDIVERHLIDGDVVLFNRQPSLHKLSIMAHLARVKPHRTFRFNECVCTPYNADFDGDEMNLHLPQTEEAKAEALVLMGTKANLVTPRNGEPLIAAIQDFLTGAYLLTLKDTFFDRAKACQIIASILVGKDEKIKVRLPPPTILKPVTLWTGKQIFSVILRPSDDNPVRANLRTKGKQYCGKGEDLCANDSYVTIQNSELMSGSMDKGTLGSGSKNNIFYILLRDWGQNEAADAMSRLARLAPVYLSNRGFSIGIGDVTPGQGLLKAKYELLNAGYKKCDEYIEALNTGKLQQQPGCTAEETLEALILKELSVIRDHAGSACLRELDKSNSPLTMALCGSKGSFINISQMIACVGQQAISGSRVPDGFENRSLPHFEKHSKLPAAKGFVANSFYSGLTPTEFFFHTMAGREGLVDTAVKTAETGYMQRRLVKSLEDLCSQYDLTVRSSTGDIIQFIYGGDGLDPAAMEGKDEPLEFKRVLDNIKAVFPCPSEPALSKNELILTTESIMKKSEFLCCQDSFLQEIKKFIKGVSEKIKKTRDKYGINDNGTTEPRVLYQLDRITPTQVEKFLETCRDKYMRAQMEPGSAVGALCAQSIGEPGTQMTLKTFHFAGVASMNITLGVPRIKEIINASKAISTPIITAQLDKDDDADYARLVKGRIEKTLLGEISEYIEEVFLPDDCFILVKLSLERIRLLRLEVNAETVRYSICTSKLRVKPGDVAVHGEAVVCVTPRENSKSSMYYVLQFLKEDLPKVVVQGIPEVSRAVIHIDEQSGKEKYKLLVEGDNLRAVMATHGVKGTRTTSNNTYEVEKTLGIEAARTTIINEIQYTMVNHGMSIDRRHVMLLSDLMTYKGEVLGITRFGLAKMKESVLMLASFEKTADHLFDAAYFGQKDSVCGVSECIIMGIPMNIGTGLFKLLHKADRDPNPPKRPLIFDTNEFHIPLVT
In short: as §1

SKIV2L = SKIV2L (human, UniProt Q15477 1-1246)
In short: as §1

Measured: binding result

SKIV2L, sequence (Q15477 whole entry): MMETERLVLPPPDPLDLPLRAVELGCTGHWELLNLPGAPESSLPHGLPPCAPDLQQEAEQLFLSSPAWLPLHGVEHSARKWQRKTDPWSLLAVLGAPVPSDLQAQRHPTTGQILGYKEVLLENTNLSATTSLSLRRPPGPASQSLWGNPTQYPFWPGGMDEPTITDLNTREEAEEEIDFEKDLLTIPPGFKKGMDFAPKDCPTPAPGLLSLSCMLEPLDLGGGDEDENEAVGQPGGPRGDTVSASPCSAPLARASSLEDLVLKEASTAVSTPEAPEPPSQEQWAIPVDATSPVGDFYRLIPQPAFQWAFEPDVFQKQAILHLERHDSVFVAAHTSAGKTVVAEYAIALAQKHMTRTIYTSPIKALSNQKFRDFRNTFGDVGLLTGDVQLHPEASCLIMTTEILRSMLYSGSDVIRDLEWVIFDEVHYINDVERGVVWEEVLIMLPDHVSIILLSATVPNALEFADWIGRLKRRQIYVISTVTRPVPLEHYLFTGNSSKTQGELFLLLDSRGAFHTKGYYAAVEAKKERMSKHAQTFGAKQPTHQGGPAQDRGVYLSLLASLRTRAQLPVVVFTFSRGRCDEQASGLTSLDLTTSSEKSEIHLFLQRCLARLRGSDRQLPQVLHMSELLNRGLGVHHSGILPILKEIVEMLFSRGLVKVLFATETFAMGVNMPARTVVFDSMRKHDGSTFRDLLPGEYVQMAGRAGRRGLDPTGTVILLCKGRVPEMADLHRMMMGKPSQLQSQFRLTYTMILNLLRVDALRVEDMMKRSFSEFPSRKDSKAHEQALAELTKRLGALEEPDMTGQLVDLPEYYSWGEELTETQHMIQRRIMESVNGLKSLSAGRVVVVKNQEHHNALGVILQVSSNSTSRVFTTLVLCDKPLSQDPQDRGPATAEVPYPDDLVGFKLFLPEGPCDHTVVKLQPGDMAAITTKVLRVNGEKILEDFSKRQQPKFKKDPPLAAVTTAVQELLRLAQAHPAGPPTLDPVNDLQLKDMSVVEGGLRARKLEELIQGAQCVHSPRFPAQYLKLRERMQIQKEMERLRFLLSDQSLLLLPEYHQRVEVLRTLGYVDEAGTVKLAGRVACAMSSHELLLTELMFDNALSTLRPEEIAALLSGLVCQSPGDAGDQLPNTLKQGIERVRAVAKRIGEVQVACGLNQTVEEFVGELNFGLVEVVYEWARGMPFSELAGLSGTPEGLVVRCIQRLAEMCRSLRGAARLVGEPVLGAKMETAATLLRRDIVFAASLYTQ

B1: LZTR1 R810W-FLAG (other, human, UniProt Q8N653 1-840, looked up)
chain: MAGPGSTGGQIGAAALAGGARSKVAPSVDFDHSCSDSVEYLTLNFGPFETVHRWRRLPPCDEFVGARRSKHTVVAYKDAIYVFGGDNGKTMLNDLLRFDVKDCSWCRAFTTGTPPAPRYHHSAVVYGSSMFVFGGYTGDIYSNSNLKNKNDLFEYKFATGQWTEWKIEGRLPVARSAHGATVYSDKLWIFAGYDGNARLNDMWTIGLQDRELTCWEEVAQSGEIPPSCCNFPVAVCRDKMFVFSGQSGAKITNNLFQFEFKDKTWTRIPTEHLLRGSPPPPQRRYGHTMVAFDRHLYVFGGAADNTLPNELHCYDVDFQTWEVVQPSSDSEVGGAEVPERACASEEVPTLTYEERVGFKKSRDVFGLDFGTTSAKQPTQPASELPSGRLFHAAAVISDAMYIFGGTVDNNIRSGEMYRFQFSCYPKCTLHEDYGRLWESRQFCDVEFVLGEKEECVQGHVAIVTARSRWLRRKITQARERLAQKLEQEAAPVPREAPGVAAGGARPPLLHVAIREAEARPFEVLMQFLYTDKIKYPRKGHVEDVLLIMDVYKLALSFQLCRLEQLCRQYIEASVDLQNVLVVCESAARLQLSQLKEHCLNFVVKESHFNQVIMMKEFERLSSPLIVEIVRRKQQPPPRTPLDQPVDIGTSLIQDMKAYLEGAGAEFCDITLLLDGHPRPAHKAILAARSSYFEAMFRSFMPEDGQVNISIGEMVPSRQAFESMLRYIYYGEVNMPPEDSLYLFAAPYYYGFYNNRLQAYCKQNLEMNVTVQNVLQILEAADKTQALDMKRHCLHIIVHQFTKVSKLPTLWSLSQQLLLDIIDSLASHISDKQCAELGADI
notes: Stably expressed in U87 cells by lentivirus; also called LZTR1-FLAG-R810W; LZTR1 RW; not shown: FLAG tag
binds: all assays above
